{
  "source": "patent US20220040304A1",
  "about": "“A COMPOSITION FOR CANCER CELL DEATH AND ITS USE” (Industry-University Cooperation Foundation Hanyang …, priority 2018, published 2022)",
  "key": {"BT-474": {"tested_on": "BT-474", "assay": "Cell death with Co-h substrate by cell type (SYTOX Green or EthD-1/DAPI)", "format": "cell-based, human", "details": "BT-474, protein 10 μM, Co-h 150 μM for 5 minutes", "description": "(§1) The cells were seeded at 5×10^5 cells/mL in 96-well plates (SPL Cell Culture Plate, 96 well (SPL, Cat #30096)), and cultured at 37° C. for 24 hours (overnight). After the culture for 24 hours, the cells were washed with FBS & phenol red-free media, and 100 μL of FBS & phenol red-free media containing a purified protein (final concentration: 10 μM) was added, followed by reaction at 37° C. for 24 hours.\n(§2) Subsequently, the cells were washed with FBS & phenol red-free media, and 100 μL of FBS & phenol red-free media was added. 100 μL of FBS & Phenol red-free media (RPMI) containing a Co-h substrate solution (final concentration: 150 μM) was added, followed by reaction at 37° C. for 5 minutes.\n(§3) After the reaction, 50 μL of SYTOX Green (final concentration: 261 nM) or 90 μL of ethidium homodimer (EthD-1) (final concentration 1×), which stains DNA of dead cells, was added, followed by reaction at 37° C. for 30 minutes. 10 μL of DAPI staining DNA of live cells was added, followed by reaction for 5 minutes. Cell death was confirmed by observing KillerRed, SYTOX Green, MiniSOG, EthD-1 and DAPI fluorescence using a confocal microscope."}, "MCF-10A": {"tested_on": "MCF-10A", "assay": "Cell death with Co-h substrate by cell type (SYTOX Green or EthD-1/DAPI)", "format": "cell-based, human", "details": "protein 10 μM, Co-h 150 μM for 5 minutes", "description": "as §1, §2, §3"}, "SK-BR-3": {"tested_on": "SK-BR-3", "assay": "Cell death with Co-h substrate by cell type (SYTOX Green or EthD-1/DAPI)", "format": "cell-based, human", "details": "SK-BR-3, protein 10 μM, Co-h 150 μM for 5 minutes", "description": "as §1, §2, §3"}, "[1]": {"assay": "Bioluminescence assay of purified proteins with Co-h substrate (BRET)", "format": "physicochemical", "details": "protein 1 μM, Co-h 50 μM, 1×PBS", "description": "In addition, 100 μL of buffer (1×PBS) containing the protein purified in Example 1 (final concentration: 1 μM) was dispensed into a 96-well plate (SPL Cell Culture Plate, 96 well (SPL, Cat #30196)), and bioluminescence assay was then performed using 50 μL of buffer (1×PBS) containing a Co-h substrate solution (final concentration: 50 μM), which is a wild-type 2-deoxy derivative. Bioluminescence intensity was immediately measured at a wavelength of 300 to 800 nm using a Thermo Scientific™ Varioskan™ Flash Multimode Reader."}, "MDA-MB-435": {"tested_on": "MDA-MB-435", "assay": "Cell death after light irradiation by cell type (SYTOX Green/DAPI)", "format": "cell-based, human", "details": "MDA-MB-435, protein 10 μM, light 10 mW/cm^2 for 10 minutes", "description": "MDA-MB-435: (Origin: breast, mammary gland, Species: human—person, Media: DMEM with glucose (4.5 g/L), L-glutamine and sodium pyruvate, 90%; heat inactivated fetal bovine serum (FBS), 10%), purchased from ATCC (USA).\nas §1, with “hours. After the reaction for 24 hours, the cells were washed with FBS & phenol red-free media, and 100 μL of FBS & phenol red-free media was added.” for “hours.”\n(§4) After irradiation with light at 10 mW/cm^2 for 10 minutes, 50 μL (final concentration: 261 nM) of SYTOX Green staining DNA of dead cells was added, followed by reaction at 37° C. for 30 minutes. 10 μL of DAPI staining DNA of live cells was added, followed by reaction for 5 minutes. Cell death was confirmed by observing KillerRed, SYTOX Green and DAPI fluorescence using a confocal microscope."}, "MDA-MB-231": {"tested_on": "MDA-MB-231", "assay": "Cell death after light irradiation by cell type (SYTOX Green/DAPI)", "format": "cell-based, human", "details": "MDA-MB-231, protein 10 μM, light 10 mW/cm^2 for 10 minutes", "description": "MDA-MB-231: (Origin: breast, mammary gland, Species: human—person, Growth pattern: monolayer, Media: DMEM with glucose (4.5 g/L), L-glutamine and sodium pyruvate, 90%; heat inactivated fetal bovine serum (FBS), 10%), purchased from Korean Cell Line Bank (KCLB).\nas §1, with “hours. After the reaction for 24 hours, the cells were washed with FBS & phenol red-free media, and 100 μL of FBS & phenol red-free media was added.” for “hours.”\nas §4"}, "MCF-7": {"tested_on": "MCF-7", "assay": "Cell death after light irradiation by cell type (SYTOX Green/DAPI)", "format": "cell-based, human", "details": "MCF-7, protein 10 μM, light 10 mW/cm^2 for 10 minutes", "description": "Data on each breast cancer cell line is as follows (Table 4): MCF-7: (Origin: breast, mammary gland, Species: human—person, Growth pattern: monolayer, Media: RPMI1640 with L-glutamine (300 mg/L), 25 mM HEPES and 25 mM NaHCO3, 90%; heat inactivated fetal bovine serum (FBS), 10%), purchased from Korean Cell Line Bank (KCLB).\nas §1, with “hours. After the reaction for 24 hours, the cells were washed with FBS & phenol red-free media, and 100 μL of FBS & phenol red-free media was added.” for “hours.”\nas §4"}, "MCF-7 cells": {"tested_on": "MCF-7 cells", "assay": "Cell death according to presence of serum and protein treatment time (Co-h)", "format": "cell-based, human", "details": "MCF-7, protein 10 μM, serum-free media or serum-containing media, Co-h 150 μM", "description": "MCF-7 cells were seeded at 5×10^5 cells/mL in a 96-well plate (SPL Cell Culture Plate, 96 well (SPL, Cat #30096)), and cultured at 37° C. for 24 hours (overnight). After the culture for 24 hours, the cells were washed with FBS & Phenol red-free media (RPMI, Well Gene., Korea, Cat #LM011-02), and 100 μL of an FBS-free medium or FBS media (RPMI), containing purified protein (final concentration: 10 μM), was added, followed by reaction at 37° C. over time.\nAfter the reaction, the cells were washed with FBS & Phenol red-free media (RPMI), 100 μL of FBS & Phenol red-free media (RPMI) containing a Co-h substrate solution (final concentration: 150 μM) and SYTOX Green (final concentration: 261 nM) staining DNA of dead cells was added, followed by reaction at 37° C. for 30 minutes.\nAfter the reaction, 10 μL of DAPI staining DNA of live cells was added, followed by reaction for 5 minutes. Cell death was confirmed by observing KillerRed, SYTOX Green and DAPI fluorescence using a confocal microscope."}},
  "data": [
    {"molecule": "RLuc8.6-KR: fusion protein of RLuc8.6 and KillerRed without lead peptide, 69 kDa (protein, pRSET-RLuc8.6-KillerRed) MRGSHHHHHHGMASMTGGQQMGRDLYDDDDKDPMASKVYDPEQRKRMITGPQWWARCKQMNVLDSFINYYDSEKHAENAVIFLHGNATSSYLWRHVVPHIEPVARCIIPDLIGMGKSGKSGNGSYRLLDHYKYLTAWFELLNLPKKIIFVGHDWGSALAFHYAYEHQDRIKAIVHMESVVDVIESWMGWPDIEEELALIKSEEGEKMVLENNFFVETLLPSKIMRKLEPEEFAAYLEPFKEKGEVRRPTLSWPREIPLVKGGKPDVVQIVRNYNAYLRASDDLPKLFIESDPGFFYNAIVEGAKKFPNTEFVKVKGLHFLQEDAPDEMGKYIKSFVERVLKNEQEFGGGMLCCMRRTKQVEKNDEDQKISEGGPALFQSDMTFKIFIDGEVNGQKFTIVADGSSKFPHGDFNVHAVCETGKLPMSWKPICHLIQYGEPFFARYPDGISHFAQECFPEGLSIDRTVRFENDGTMTSHHTYELDDTCVVSRITVNCDGFQPDGPIMRDQLVDILPNETHMFPHGPNAVRQLAFIGFTTADGGLMMGHFDSKMTFNGSRAIEIPGPHFVTIITKQMRDTSDKRDHVCQREVAYAHSVPRITSAIGSDED", "values": [
      {"measurement": "cell death with Co-h substrate", "setting": "BT-474", "result": "none of the six breast cancer cell lines were killed"},
      {"measurement": "cell death with Co-h substrate", "setting": "MCF-10A", "result": "none of the six breast cancer cell lines were killed"},
      {"measurement": "cell death with Co-h substrate", "setting": "SK-BR-3", "result": "none of the six breast cancer cell lines were killed"}
    ]},
    {"molecule": "KR: first protein KillerRed, ROS-generating protein (superoxide), expressed from pRSET-KillerRed, 31 kDa (protein, pRSET-KillerRed, first protein KillerRed, ROS-generating protein (superoxide), expressed from pRSET-KillerRed, 31 kDa) MRGSHHHHHHGMASMTGGQQMGRDLYDDDDKDPMLCCMRRTKQVEKNDEDQKISEGGPALFQSDMTFKIFIDGEVNGQKFTIVADGSSKFPHGDFNVHAVCETGKLPMSWKPICHLIQYGEPFFARYPDGISHFAQECFPEGLSIDRTVRFENDGTMTSHHTYELDDTCVVSRITVNCDGFQPDGPIMRDQLVDILPNETHMFPHGPNAVRQLAFIGFTTADGGLMMGHFDSKMTFNGSRAIEIPGPHFVTIITKQMRDTSDKRDHVCQREVAYAHSVPRITSAIGSDED", "values": [
      {"measurement": "emission in bioluminescence assay (BRET)", "setting": "[1]", "result": 610, "unit": "nm"}
    ]},
    {"molecule": "RLuc8.6-KR-LP: fusion protein of RLuc8.6, KillerRed and lead peptide WLEAAYQRFL, 71 kDa (protein, pRSET-RLuc8.6-KillerRed-Lead peptide) MRGSHHHHHHGMASMTGGQQMGRDLYDDDDKDPMASKVYDPEQRKRMITGPQWWARCKQMNVLDSFINYYDSEKHAENAVIFLHGNATSSYLWRHVVPHIEPVARCIIPDLIGMGKSGKSGNGSYRLLDHYKYLTAWFELLNLPKKIIFVGHDWGSALAFHYAYEHQDRIKAIVHMESVVDVIESWMGWPDIEEELALIKSEEGEKMVLENNFFVETLLPSKIMRKLEPEEFAAYLEPFKEKGEVRRPTLSWPREIPLVKGGKPDVVQIVRNYNAYLRASDDLPKLFIESDPGFFYNAIVEGAKKFPNTEFVKVKGLHFLQEDAPDEMGKYIKSFVERVLKNEQEFGGGMLCCMRRTKQVEKNDEDQKISEGGPALFQSDMTFKIFIDGEVNGQKFTIVADGSSKFPHGDFNVHAVCETGKLPMSWKPICHLIQYGEPFFARYPDGISHFAQECFPEGLSIDRTVRFENDGTMTSHHTYELDDTCVVSRITVNCDGFQPDGPIMRDQLVDILPNETHMFPHGPNAVRQLAFIGFTTADGGLMMGHFDSKMTFNGSRAIEIPGPHFVTIITKQMRDTSDKRDHVCQREVAYAHSVPRITSAIGSDEDGGGWLEAAYQRFL", "values": [
      {"measurement": "cell death after light irradiation", "setting": "MDA-MB-435", "result": "killing the three types of cancer cell lines"},
      {"measurement": "cell death after light irradiation", "setting": "MDA-MB-231", "result": "killing the three types of cancer cell lines"},
      {"measurement": "cell death after light irradiation", "setting": "MCF-7", "result": "killing the three types of cancer cell lines"},
      {"measurement": "protein treatment time from which the number of cells stained with SYTOX Green increased", "setting": "MCF-7 cells", "result": "~4", "unit": "h"}
    ]}
  ]
}
